A word on the koff: it is the first-order rate constant of dissociation. The low end stands for a long-lived complex, the high end for a short-lived complex. One may read the kon as the second-order rate constant of association. A low value points to slow association.

Here are results for one substance from publication PMC2702692.

The target in the test is BSA-glycopolymer conjugate 10 (glycoprotein mimic 10) (bovine) (UniProt P02769). Kind of test: SPR.
Sequence of UniProt P02769 (P02769 25-607): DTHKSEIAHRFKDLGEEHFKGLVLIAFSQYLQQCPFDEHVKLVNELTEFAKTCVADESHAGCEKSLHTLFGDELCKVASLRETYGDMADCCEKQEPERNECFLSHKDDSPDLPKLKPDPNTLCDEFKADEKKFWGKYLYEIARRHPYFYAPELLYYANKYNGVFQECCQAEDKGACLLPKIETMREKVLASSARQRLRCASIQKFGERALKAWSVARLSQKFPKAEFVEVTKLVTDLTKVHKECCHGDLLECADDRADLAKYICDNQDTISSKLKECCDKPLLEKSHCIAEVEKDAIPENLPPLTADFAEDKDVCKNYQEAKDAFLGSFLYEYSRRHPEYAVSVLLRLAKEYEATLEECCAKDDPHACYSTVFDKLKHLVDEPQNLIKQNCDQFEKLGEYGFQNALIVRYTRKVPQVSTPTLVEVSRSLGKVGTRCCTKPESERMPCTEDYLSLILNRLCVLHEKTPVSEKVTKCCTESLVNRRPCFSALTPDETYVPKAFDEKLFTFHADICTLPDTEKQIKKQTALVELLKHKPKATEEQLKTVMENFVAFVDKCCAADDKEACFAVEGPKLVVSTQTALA

In turn, “recombinant rat mannose-binding lectin (MBL) (from UniProt P19999 18-238) (natural protein)” gave an off-rate constant (koff) of 0.00073 s⁻¹ and a kon of 120000 M⁻¹ s⁻¹.
